# Assay results as given in PMC10397247.
# B1: 4H4073-bN (peptide)
# chain: DKNQQLKQKNQELKQKIQELKWEIQELEQ
# B2: 4H4001-bA (peptide)
# chain: DKNAQLKQKNAELEQKIAELEWEIAQLEQ
# B3: APC4011-AA (peptide)
# chain: DENAALEAELAAIEAKLAAIKAKLAAIKG
# Assays:
# [1] = biological target: T1, 4H918-bN; assay: two-hybrid library CCNG1;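 note: natural log of median RNA to DNA barcode read ratio; higher means stronger binding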
# T1 chain: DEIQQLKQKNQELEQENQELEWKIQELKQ
# [2] = biological target: T2, 4H855-bN; assay: two-hybrid library CCNG1;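 note: natural log of median RNA to DNA barcode read ratio; higher means stronger binding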
# T2 chain: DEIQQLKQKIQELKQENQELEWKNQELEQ
# [3] = biological target: T3, 4H457-bN; assay: two-hybrid library CCNG1;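 note: natural log of median RNA to DNA barcode read ratio; higher means stronger binding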
# T3 chain: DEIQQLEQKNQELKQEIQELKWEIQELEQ
# [4] = biological target: T4, 4H953-bN; assay: two-hybrid library CCNG1;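 note: natural log of median RNA to DNA barcode read ratio; higher means stronger binding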
# T4 chain: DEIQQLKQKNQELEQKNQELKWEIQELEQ
# [5] = biological target: T5, 4H968-bN; assay: two-hybrid library CCNG1;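 note: natural log of median RNA to DNA barcode read ratio; higher means stronger binding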
# T5 chain: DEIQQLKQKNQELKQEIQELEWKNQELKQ
# [6] = biological target: T6, 4H4073-bN; assay: two-hybrid library CCNG1;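 note: natural log of median RNA to DNA barcode read ratio; higher means stronger binding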
# T6 chain: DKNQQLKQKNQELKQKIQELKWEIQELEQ
# [7] = biological target: T7, 4H780-bN; assay: two-hybrid library CCNG1
# T7 chain: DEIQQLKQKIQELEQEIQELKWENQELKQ
# [8] = biological target: T8, 4H683-bN; assay: two-hybrid library CCNG1
# T8 chain: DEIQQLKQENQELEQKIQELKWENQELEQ
# [9] = biological target: T9, 4H754-bN; assay: two-hybrid library CCNG1
# T9 chain: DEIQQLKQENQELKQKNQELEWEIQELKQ
# [10] = biological target: T10, 4H797-bN; assay: two-hybrid library CCNG1
# T10 chain: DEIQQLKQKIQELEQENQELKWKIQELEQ
# [11] = biological target: T11, 4H575-bN; assay: two-hybrid library CCNG1
# T11 chain: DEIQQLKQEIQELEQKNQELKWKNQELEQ
# [12] = biological target: T12, 4H72-bA; assay: two-hybrid library CCNG1
# T12 chain: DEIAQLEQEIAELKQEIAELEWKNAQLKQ
# [13] = biological target: T13, 4H797-bA; assay: two-hybrid library CCNG1
# T13 chain: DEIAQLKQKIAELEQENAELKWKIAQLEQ
# [14] = biological target: T14, 4H717-bA; assay: two-hybrid library CCNG1
# T14 chain: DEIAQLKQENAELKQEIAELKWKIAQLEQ
# [15] = biological target: T15, 4H918-bA; assay: two-hybrid library CCNG1
# T15 chain: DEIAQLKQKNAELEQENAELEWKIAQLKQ
# [16] = biological target: T16, 4H4001-bA; assay: two-hybrid library CCNG1
# T16 chain: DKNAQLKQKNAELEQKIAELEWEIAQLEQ
# [17] = biological target: T17, 4H908-bA; assay: two-hybrid library CCNG1
# T17 chain: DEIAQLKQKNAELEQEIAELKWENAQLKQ
# [18] = biological target: T18, 4H568-bA; assay: two-hybrid library CCNG1
# T18 chain: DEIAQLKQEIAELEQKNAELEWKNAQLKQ
# [19] = biological target: T19, 4H883-bA; assay: two-hybrid library CCNG1
# T19 chain: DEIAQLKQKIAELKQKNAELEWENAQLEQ
# [20] = biological target: T20, 4H754-bA; assay: two-hybrid library CCNG1
# T20 chain: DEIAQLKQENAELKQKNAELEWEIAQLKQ
# [21] = biological target: T21, 4H607-bA; assay: two-hybrid library CCNG1
# T21 chain: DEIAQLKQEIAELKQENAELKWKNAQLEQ
# [22] = biological target: T22, 4H953-bA; assay: two-hybrid library CCNG1
# T22 chain: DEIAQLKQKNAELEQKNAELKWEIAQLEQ
# [23] = biological target: T23, 4H462-bA; assay: two-hybrid library CCNG1
# T23 chain: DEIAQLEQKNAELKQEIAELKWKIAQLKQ
# [24] = biological target: T24, 4H454-bA; assay: two-hybrid library CCNG1
# T24 chain: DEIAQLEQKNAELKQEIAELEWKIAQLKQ
# [25] = biological target: T25, 4H967-bA; assay: two-hybrid library CCNG1
# T25 chain: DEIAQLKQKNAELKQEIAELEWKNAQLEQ
# [26] = biological target: T26, 4H687-bA; assay: two-hybrid library CCNG1
# T26 chain: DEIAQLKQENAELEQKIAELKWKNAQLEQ
# [27] = biological target: T27, APC4264-AA; assay: two-hybrid library CCmax; conditions: mean of both orientations
# T27 chain: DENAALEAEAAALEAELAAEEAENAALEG
# [28] = biological target: T28, APC8910-AA; assay: two-hybrid library CCmax; conditions: mean of both orientations
# T28 chain: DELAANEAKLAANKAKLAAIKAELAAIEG
# [29] = biological target: T29, APC9096-AA; assay: two-hybrid library CCmax; conditions: mean of both orientations
# T29 chain: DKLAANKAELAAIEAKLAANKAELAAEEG
# [30] = biological target: T30, APC4436-AA; assay: two-hybrid library CCmax; conditions: mean of both orientations
# T30 chain: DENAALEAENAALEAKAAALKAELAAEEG
# [31] = biological target: T31, APC8191-AA; assay: two-hybrid library CCmax
# T31 chain: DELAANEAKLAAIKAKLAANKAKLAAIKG
# [32] = biological target: T32, APC5383-AA; assay: two-hybrid library CCmax; conditions: mean of both orientations
# T32 chain: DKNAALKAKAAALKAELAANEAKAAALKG
# [33] = biological target: T33, APC4011-AA; assay: two-hybrid library CCmax
# T33 chain: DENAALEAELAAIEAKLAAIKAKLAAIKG
# [34] = biological target: T34, APC9319-AA; assay: two-hybrid library CCmax; conditions: mean of both orientations
# T34 chain: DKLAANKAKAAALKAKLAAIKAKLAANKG
# [35] = biological target: T35, APC7099-AA; assay: two-hybrid library CCmax; conditions: mean of both orientations
# T35 chain: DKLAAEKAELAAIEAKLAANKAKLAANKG
# [36] = biological target: T36, APC6108-AA; assay: two-hybrid library CCmax; conditions: mean of both orientations
# T36 chain: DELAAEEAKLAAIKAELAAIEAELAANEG
binder,measurement,setting,value
B1,interaction score,[1],-0.772
same,interaction score,[2],-0.729
same,interaction score,[3],-0.816
same,interaction score,[4],-1.56
same,interaction score,[5],-1.13
same,interaction score,[6],-1.77
same,interaction score,[7],-0.882
same,interaction score,[8],-1.31
same,interaction score,[9],-1.18
same,interaction score,[10],-0.921
same,interaction score,[11],-1.72
B2,interaction score,[12],-1.27
same,interaction score,[13],-1.28
same,interaction score,[14],-2.02
same,interaction score,[15],-1.15
same,interaction score,[16],-0.927
same,interaction score,[17],-0.992
same,interaction score,[18],-1.47
same,interaction score,[19],-0.688
same,interaction score,[20],-1.03
same,interaction score,[21],-1.34
same,interaction score,[22],-1.52
same,interaction score,[23],-0.0948
same,interaction score,[24],1.01
same,interaction score,[25],-1.03
same,interaction score,[26],-1.34
B3,interaction score,[27],-1.72
same,interaction score,[28],-1.43
same,interaction score,[29],-1.88
same,interaction score,[30],-1.48
same,interaction score,[31],-1.55
same,interaction score,[32],-1.52
same,interaction score,[33],2.04
same,interaction score,[34],-1.27
same,interaction score,[35],-1.45
same,interaction score,[36],0.352
